The values that follow come from PMC4690471 (Cell, 2015).

For orientation: stoichiometry N means the number of molecules, sites or subunits per partner or assembly.

First the molecules themselves.
B2: zebrafish RAG1 (271–1031) (domain or fragment, UniProt O13033 271-1031, looked up)
chain: RCQRDHLSTKLIPTEVPADLIRAVTCQVCDHLLSDPVQSPCRHLFCRLCIIRYTHALGPNCPTCNQHLNPSHLIKPAKFFLATLSSLPLLCPSEECSDWVRLDSFREHCLNHYREKESQEEQTPSEQNLDGYLPVNKGGRPRQHLLSLTRRAQKHRLRDLKNQVKTFAEKEEGGDVKSVCLTLFLLALRAGNEHKQADELEAMMQGRGFGLHPAVCLAIRVNTFLSCSQYHKMYRTVKATSGRQIFQPLHTLRNAEKELLPGFHQFEWQPALKNVSTSWDVGIIDGLSGWTVSVDDVPADTISRRFRYDVALVSALKDLEEDIMEGLRERALDDSMCTSGFTVVVKESCDGMGDVSEKHGSGPAVPEKAVRFSFTIMSISIRLEGEDDGITIFQEQKPNSELSCRPLCLMFVDESDHETLTAILGPVVAERKAMMESRLIISVGGLLRSFRFFFRGTGYDEKMVREMEGLEASGSTYICTLCDSTRAEASQNMVLHSITRSHDENLERYEIWRKNPFSESADELRDRVKGVSAKPFMETQPTLDALHCDIGNATEFYKIFQDEIGEVYQKPNPSREERRRWRSTLDKQLRKKMKLKPVMRMNGNYARRLMTREAVEAVCELVPSEERREALLKLMDLYLQMKPVWRSTCPSRDCPDQLCQYSYNSQQFADLLSSMFKYRYDGKITNYLHKTLAHVPEIVERDGSIGAWASEGNESGNKLFRRFRKMNARQSKTFELEDILKHHWLYTSKYLQKFMEAHKNS

Data set [1] concerns the target B2. Description: cryo-EM structure.
Data set [2] deals with the molecule itself. Description: cryo-EM structure.

B1: full-length zebrafish RAG2 (natural protein, UniProt O13034 1-530, looked up)
chain: MSLQPLTAVNCGSLVQPGFSLLDLEGDVYLFGQKGWPKRSCPTGIFGVRIKKGELKLRAISFSNNSSYLPPLRCPAIAHFEAQDGKPECYLIHGGRTPNNELSSSLYMLSVDSRGCNRKVTLRCEEKELVGDVPSARYGHTLSVINSRGKTACVLFGGRSYMPPTERTTQNWNSVGDCPPQVYLIDLEFGCCTAHTLPELTDGQSFHVALARQDCVYFLGGHILSSDCRPSRLIRLHVELLLGSPVLTCTILHEGLTITSAIASPIGYHEYIIFGGYQSETQKRMECTYVGLDDVGVHMESREPPQWTSEISHSRTWFGGSLGKGTALVAIPSEGNPTPPEAYHFYQVSFQKEQDGEATAQGCSQESTDFEDSAPLEDSEELYFGREPHELEYSSDVEGDTYNEEDEEDESQTGYWIKCCLSCQVDPNIWEPYYSTELTRPAMIFCSRGEGGHWVHAQCMELPESLLLQLSQDNSKYFCLDHGGLPKQEMTPPKQMLPVKRVPMKMTHRKAPVSLKMTPAKKTFLRRLFD
Take B1: in data set [1], the binding result is “binds”.

As for B2, the “stoichiometry N” value in data set [2] stood at 2.
